The Human Domainome abundance scans (Beltran et al. 2025)
± gives the uncertainty stated by the source.

B1: Histone H1t, residues 44 to 112; numbered along this chain, P22492 (parent)
chain: VSKLITEALSVSQERVGMSLVALKKALAAAGYDVEKNNSRIKLSLKSLVNKGILVQTRGTGASGSFKLS

Variants of: B1
Assay: abundance fitness (aPCA) (normalised: wild type 0, dead -1); higher = more abundant; growth selection in yeast, the domain comes from the species named
Conditions: Homo sapiens

Variant	abundance fitness
VSKLITEALSVSQERVGMSLVALKKALMAAGYDVEKNNSRIKLSLKSLVNKGILVQTRGTGASGSFKLS	-0.089 ± 0.036
VSKLITEALSVSQERVGMSLVALKKALYAAGYDVEKNNSRIKLSLKSLVNKGILVQTRGTGASGSFKLS	-0.124 ± 0.04
VSKLITEALSVSQERVGMSLVALKKALLAAGYDVEKNNSRIKLSLKSLVNKGILVQTRGTGASGSFKLS	-0.087 ± 0.031
VSKLITEALSVSQERVGMSLVALKKALSAAGYDVEKNNSRIKLSLKSLVNKGILVQTRGTGASGSFKLS	-0.114 ± 0.053
VSKLITEALSVSQERVGMSLVALKKALVAAGYDVEKNNSRIKLSLKSLVNKGILVQTRGTGASGSFKLS	-0.098 ± 0.032
VSKLITEALSVSQERVGMSLVALKKALFAAGYDVEKNNSRIKLSLKSLVNKGILVQTRGTGASGSFKLS	-0.231 ± 0.033
VSKLITEALSVSQERVGMSLVALKKALEAAGYDVEKNNSRIKLSLKSLVNKGILVQTRGTGASGSFKLS	-0.197 ± 0.054
VSKLITEALSVSQERVGMSLVALKKALCAAGYDVEKNNSRIKLSLKSLVNKGILVQTRGTGASGSFKLS	-0.175 ± 0.035
VSKLITEALSVSQERVGMSLVALKKALNAAGYDVEKNNSRIKLSLKSLVNKGILVQTRGTGASGSFKLS	-0.18 ± 0.066
VSKLITEALSVSQERVGMSLVALKKALIAAGYDVEKNNSRIKLSLKSLVNKGILVQTRGTGASGSFKLS	-0.059 ± 0.041
VSKLITEALSVSQERVGMSLVALKKALWAAGYDVEKNNSRIKLSLKSLVNKGILVQTRGTGASGSFKLS	-0.327 ± 0.032
VSKLITEALSVSQERVGMSLVALKKALGAAGYDVEKNNSRIKLSLKSLVNKGILVQTRGTGASGSFKLS	-0.106 ± 0.035
VSKLITEALSVSQERVGMSLVALKKALRAAGYDVEKNNSRIKLSLKSLVNKGILVQTRGTGASGSFKLS	0.003 ± 0.045
VSKLITEALSVSQERVGMSLVALKKALDAAGYDVEKNNSRIKLSLKSLVNKGILVQTRGTGASGSFKLS	-0.258 ± 0.061
VSKLITEALSVSQERVGMSLVALKKACAAAGYDVEKNNSRIKLSLKSLVNKGILVQTRGTGASGSFKLS	-0.394 ± 0.078
VSKLITEALSVSQERVGMSLVALKKAMAAAGYDVEKNNSRIKLSLKSLVNKGILVQTRGTGASGSFKLS	-0.159 ± 0.038
VSKLITEALSVSQERVGMSLVALKKARAAAGYDVEKNNSRIKLSLKSLVNKGILVQTRGTGASGSFKLS	-1.12 ± 0.11
VSKLITEALSVSQERVGMSLVALKKATAAAGYDVEKNNSRIKLSLKSLVNKGILVQTRGTGASGSFKLS	-0.696 ± 0.059
VSKLITEALSVSQERVGMSLVALKKAFAAAGYDVEKNNSRIKLSLKSLVNKGILVQTRGTGASGSFKLS	-0.221 ± 0.036
VSKLITEALSVSQERVGMSLVALKKAPAAAGYDVEKNNSRIKLSLKSLVNKGILVQTRGTGASGSFKLS	-1.06 ± 0.1

Variant	abundance fitness
VSKLITEALSVSQERVGMSLVALKKAWAAAGYDVEKNNSRIKLSLKSLVNKGILVQTRGTGASGSFKLS	-0.371 ± 0.063
VSKLITEALSVSQERVGMSLVALKKASAAAGYDVEKNNSRIKLSLKSLVNKGILVQTRGTGASGSFKLS	-0.746 ± 0.046
VSKLITEALSVSQERVGMSLVALKKAKAAAGYDVEKNNSRIKLSLKSLVNKGILVQTRGTGASGSFKLS	-0.999 ± 0.063
VSKLITEALSVSQERVGMSLVALKKAQAAAGYDVEKNNSRIKLSLKSLVNKGILVQTRGTGASGSFKLS	-1.06 ± 0.11
VSKLITEALSVSQERVGMSLVALKKAAAAAGYDVEKNNSRIKLSLKSLVNKGILVQTRGTGASGSFKLS	-0.506 ± 0.092
VSKLITEALSVSQERVGMSLVALKKAHAAAGYDVEKNNSRIKLSLKSLVNKGILVQTRGTGASGSFKLS	-0.838 ± 0.09
VSKLITEALSVSQERVGMSLVALKKADAAAGYDVEKNNSRIKLSLKSLVNKGILVQTRGTGASGSFKLS	-0.677 ± 0.091
VSKLITEALSVSQERVGMSLVALKKAGAAAGYDVEKNNSRIKLSLKSLVNKGILVQTRGTGASGSFKLS	-0.681 ± 0.1
VSKLITEALSVSQERVGMSLVALKKAVAAAGYDVEKNNSRIKLSLKSLVNKGILVQTRGTGASGSFKLS	-0.202 ± 0.037
VSKLITEALSVSQERVGMSLVALKKAIAAAGYDVEKNNSRIKLSLKSLVNKGILVQTRGTGASGSFKLS	-0.116 ± 0.039
VSKLITEALSVSQERVGMSLVALKKANAAAGYDVEKNNSRIKLSLKSLVNKGILVQTRGTGASGSFKLS	-0.906 ± 0.069
VSKLITEALSVSQERVGMSLVALKKALATAGYDVEKNNSRIKLSLKSLVNKGILVQTRGTGASGSFKLS	-0.04 ± 0.052
VSKLITEALSVSQERVGMSLVALKKALAGAGYDVEKNNSRIKLSLKSLVNKGILVQTRGTGASGSFKLS	-0.223 ± 0.048
VSKLITEALSVSQERVGMSLVALKKALADAGYDVEKNNSRIKLSLKSLVNKGILVQTRGTGASGSFKLS	-0.085 ± 0.053
VSKLITEALSVSQERVGMSLVALKKALAQAGYDVEKNNSRIKLSLKSLVNKGILVQTRGTGASGSFKLS	-0.081 ± 0.065
VSKLITEALSVSQERVGMSLVALKKALAWAGYDVEKNNSRIKLSLKSLVNKGILVQTRGTGASGSFKLS	-0.323 ± 0.059
VSKLITEALSVSQERVGMSLVALKKALACAGYDVEKNNSRIKLSLKSLVNKGILVQTRGTGASGSFKLS	-0.088 ± 0.042
VSKLITEALSVSQERVGMSLVALKKALAMAGYDVEKNNSRIKLSLKSLVNKGILVQTRGTGASGSFKLS	-0.097 ± 0.03
VSKLITEALSVSQERVGMSLVALKKALAIAGYDVEKNNSRIKLSLKSLVNKGILVQTRGTGASGSFKLS	-0.248 ± 0.03
